Columns and labels:
Experiment in all cases: cell-based or functional assay
[1] = target: HIV-1 envelope glycoprotein (Env) of isolate MGRM-C-014, on pseudovirus (HIV-1)
[2] = target: HIV-1 Env of isolate MGRM-AE-007 (HIV-1)
[3] = target: HIV-1 Env of isolate MGRM-AG-012 (HIV-1)
[4] = target: HIV-1 Env of isolate MGRM-G-001 (subtype G) (HIV-1)
[5] = target: HIV-1 Env of isolate MGRM-G-028 (subtype G) (HIV-1)
[6] = target: HIV-1 envelope glycoprotein (Env) of isolate MGRM-C-015, on pseudovirus (HIV-1)
[7] = target: HIV-1 envelope glycoprotein (Env) of isolate MGRM-C-019, on pseudovirus (HIV-1)
[8] = target: HIV-1 Env of isolate MGRM-G-015 (subtype G) (HIV-1)
[9] = target: HIV-1 Env of isolate MGRM-AG-011 (HIV-1)
[10] = target: HIV-1 envelope glycoprotein (Env) of isolate MGRM-C-026, on pseudovirus (HIV-1)
[11] = target: HIV-1 Env of isolate MGRM-G-025 (subtype G) (HIV-1)
[12] = target: HIV-1 envelope glycoprotein (Env) of isolate MGRM-C-020, on pseudovirus (HIV-1)
[13] = target: HIV-1 envelope glycoprotein (Env) of isolate MGRM-C-022, on pseudovirus (HIV-1)
[14] = target: HIV-1 Env of isolate MGRM-AG-003 (HIV-1)
[15] = target: HIV-1 Env of isolate MGRM-AG-006 (HIV-1)
[16] = target: HIV-1 Env of isolate MGRM-G-013 (subtype G) (HIV-1)
[17] = target: HIV-1 envelope glycoprotein (Env) of isolate MGRM-C-024, on pseudovirus (HIV-1)
[18] = target: HIV-1 Env of isolate MGRM-G-024 (subtype G) (HIV-1)
[19] = target: HIV-1 envelope glycoprotein (Env) of isolate MGRM-C-025, on pseudovirus (HIV-1)
[20] = target: HIV-1 envelope glycoprotein (Env) of isolate MGRM-C-028, on pseudovirus (HIV-1)
[21] = target: HIV-1 Env of isolate MGRM-G-027 (subtype G) (HIV-1)
[22] = target: HIV-1 Env of isolate MGRM-G-016 (subtype G) (HIV-1)
[23] = target: HIV-1 envelope glycoprotein (Env) of isolate MGRM-C-027, on pseudovirus (HIV-1)
[24] = target: HIV-1 Env of isolate MGRM-AE-008 (HIV-1)
[25] = target: HIV-1 Env of isolate MGRM-AG-002 (HIV-1)
[26] = target: HIV-1 Env of isolate MGRM-G-019 (subtype G) (HIV-1)
[27] = target: HIV-1 Env of isolate MGRM-G-009 (subtype G) (HIV-1)
[28] = target: HIV-1 Env of isolate MGRM-AG-005 (HIV-1)
[29] = target: HIV-1 Env of isolate MGRM-AG-013 (HIV-1)
[30] = target: aMLV envelope (negative control pseudovirus)
[31] = target: HIV-1 envelope glycoprotein (Env) of isolate MGRM-C-017, on pseudovirus (HIV-1)
[32] = target: HIV-1 Env of isolate MGRM-G-004 (subtype G) (HIV-1)
[33] = target: HIV-1 Env of isolate MGRM-G-006 (subtype G) (HIV-1)
[34] = target: HIV-1 Env of isolate MGRM-AG-009 (HIV-1)
[35] = target: HIV-1 Env of isolate MGRM-AG-001 (HIV-1)
[36] = target: HIV-1 Env of isolate MGRM-G-011 (subtype G) (HIV-1)
[37] = target: HIV-1 envelope glycoprotein (Env) of isolate MGRM-C-023, on pseudovirus (HIV-1)
[38] = target: HIV-1 Env of isolate MGRM-G-017 (subtype G) (HIV-1)
[39] = target: HIV-1 Env of isolate MGRM-AG-008 (HIV-1)
[40] = target: HIV-1 Env of isolate MGRM-G-014 (subtype G) (HIV-1)

Substance: PGT-145 (4995_P16) (antibody)
- IC50, pseudovirus neutralization [1]: 5.82 µg/mL
- IC50 [2]: 0.181 µg/mL
- IC50 [3]: > 50 µg/mL
- neutralization IC50 [4]: 0.028 µg/mL
- neutralization IC50 [5]: 0.046 µg/mL
- IC50, pseudovirus neutralization [6]: 0.12 µg/mL
- IC50, pseudovirus neutralization [7]: 0.005 µg/mL
- neutralization IC50 [8]: 10.5 µg/mL
- IC50 [9]: 0.003 µg/mL
- IC50, pseudovirus neutralization [10]: > 50 µg/mL
- neutralization IC50 [11]: > 50 µg/mL
- IC50, pseudovirus neutralization [12]: 0.712 µg/mL
- IC50, pseudovirus neutralization [13]: 0.492 µg/mL
- IC50 [14]: > 50 µg/mL
- IC50 [15]: 6.6 µg/mL
- neutralization IC50 [16]: > 50 µg/mL
- IC50, pseudovirus neutralization [17]: 0.174 µg/mL
- neutralization IC50 [18]: 0.06 µg/mL
- IC50, pseudovirus neutralization [19]: 0.044 µg/mL
- IC50, pseudovirus neutralization [20]: 0.099 µg/mL
- neutralization IC50 [21]: 0.433 µg/mL
- neutralization IC50 [22]: 0.081 µg/mL
- IC50, pseudovirus neutralization [23]: 0.095 µg/mL
- IC50 [24]: 1.46 µg/mL
- IC50 [25]: 0.056 µg/mL
- neutralization IC50 [26]: 0.041 µg/mL
- neutralization IC50 [27]: 0.982 µg/mL
- IC50 [28]: 0.045 µg/mL
- IC50 [29]: 14.4 µg/mL
- neutralization IC50 [30]: > 50 µg/mL
- IC50, pseudovirus neutralization [31]: > 50 µg/mL
- neutralization IC50 [32]: > 50 µg/mL
- neutralization IC50 [33]: 0.286 µg/mL
- IC50 [34]: > 50 µg/mL
- IC50 [35]: 0.164 µg/mL
- neutralization IC50 [36]: 0.028 µg/mL
- IC50, pseudovirus neutralization [37]: 0.201 µg/mL
- neutralization IC50 [38]: 0.205 µg/mL
- IC50 [39]: 0.244 µg/mL
- neutralization IC50 [40]: 0.144 µg/mL

From patent US20200024330A1
